Consider 19 sequences from the supplement of paper PMC11865577.

Holding throughout (assay): pull-down binding Z-score (relative to library population); higher = stronger binding
Series [1] concerns TO-N3-2 (biotin conjugate). Conditions: RNA library: Library-2. Put shortly:
(§1)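 Cy5- or Cy3-end-labelled RNA library (1 μg) was heat-folded in phosphate/NaCl/KCl buffer and incubated 60 min at 25 °C with streptavidin beads carrying 100 pmol biotin-conjugated small molecule. After three washes, bound RNA was eluted in hot SDS and hybridised 20 h at 55.5 °C to a DNA barcode microarray. Binding was scored by subtracting a beads-only control, averaging barcoded replicate probes after dropping highest and lowest, and converting to a Z-score against library mean and standard deviation.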

The test system of the next series is TO-N3 (biotin conjugate). To be noted: RNA library: Library-2. The gist of the method: as §1
The subject of series [2] is TO-3-N3-2 (biotin conjugate). Conditions: RNA library: Library-2. The gist of the method: as §1
Series [3] concerns G-clamp-N3 (biotin conjugate). Conditions: RNA library: Library-1 (pre-miRNA loops + repeats). Put shortly:
as §1

For series [4], the system named is TO-3-N3 (biotin conjugate). Conditions: RNA library: Library-2. Put shortly:
as §1

Take “CAGCUGUUGUCUCCAGAGCAUUCCAGCUG [hsa-mir-191]”: the “pull-down binding Z-score” value in series [1] is 1.46; with TO-N3 (biotin conjugate), 0.648; in series [2] it was -0.002; in series [3], -0.433; in series [4] it was 0.371.
As for UGCAGUUCUGUUGGGUGACAGCA [hsa-mir-6499], the “pull-down binding Z-score” value was 0.485 in series [1]; 0.342 in the series on TO-N3 (biotin conjugate); -0.0248 in series [2]; -0.982 in series [3]; 0.239 in series [4].
Taken in the same sequence, the figures for “GGAGCAGACAGACCCAACCUCAUGCUCC [hsa-mir-6763]” were 0.247, 0.219, -0.471, -0.993 and 0.0429.
“GCCUUGUUGCAUAUGGAUCAAGC [hsa-mir-103a-1]”: the “pull-down binding Z-score” value in series [1] was 0.388; in the series with TO-N3 (biotin conjugate) it was -0.178; in series [2], -0.376; in series [3], 0.266; in series [4], -0.346.
As to “GUUUGCAAGGGGUGUUUCUGUCCAUGGUCAGGC [hsa-mir-4283-1_4283-2]”, the “pull-down binding Z-score” value in series [1] was 0.725; in the series with TO-N3 (biotin conjugate), 0.778; in series [2] it was 0.154; in series [3], 1.19; in series [4] it was 0.578.
Taken in the same sequence, the figures for “UUGUCUCCUCAAGUUGCGACGAGACAG [hsa-mir-4645]” were -0.585, -0.358, -0.451, -1.13 and -0.254.
Turning to “GUGGUGGGCACUGCUGGGGUGGGCACAGCAGCCAUGCAGAGCGGGCAUUUGACCCCGUGCCACCCUUUUCCCCAG [hsa-mir-1227]”, the “pull-down binding Z-score” value came out at 2.64 in series [1]; 3.14 in the series with TO-N3 (biotin conjugate); 1.89 in series [2]; 0.221 in series [3]; 2.64 in series [4].
UUUGCUGUUGAACGUAGUGGUAA [hsa-mir-548ar]: the “pull-down binding Z-score” value in series [1] was 0.387; in the series on TO-N3 (biotin conjugate), 0.407; in series [2], 0.0962; in series [3], -0.679; in series [4], 0.181.
For the sequence GGGAUAUUUGCAUUAUACUUAUCC [hsa-mir-5009], the “pull-down binding Z-score” value was -0.458 in series [1]; -0.0499 in the series on TO-N3 (biotin conjugate); 0.015 in series [2]; -0.101 in series [3]; 0.0656 in series [4].
On to “AGCAUGCACUUAAUGUGGGUGUAUGU [hsa-mir-668]”, for which the “pull-down binding Z-score” value in series [1] was -0.105; with TO-N3 (biotin conjugate) it was 0.184; in series [2], -0.205; in series [3] it was 0.305; in series [4], 0.334.
Consider “UCAGGGAGAAAGUGCAUACAGCCCCUG [hsa-mir-328]”, for which the “pull-down binding Z-score” value was 0.36 in series [1]; -0.112 with TO-N3 (biotin conjugate); -0.166 in series [2]; -0.344 in series [3]; -0.47 in series [4].
Taken in the same sequence, the figures for “GCUGGUGACAUUGCUAAUUCAUUUCACACCAGC [hsa-mir-4293]” were -0.912, -1.31, -0.177, -0.642 and -0.991.
Taken in the same sequence, the figures for “AGGGACCCCCGGAGUCUGUCACGGUCUCA [hsa-mir-6784]” were 0.955, 0.353, 0.215, -0.402 and -0.0169.
On to GACGAUUUGAAUUAAUAAAUUC [hsa-mir-579], for which the “pull-down binding Z-score” value in series [1] was -0.419; with TO-N3 (biotin conjugate), 0.153; in series [2], 0.0871; in series [3] it was 0.799; in series [4] it was 0.329.
For the sequence “UAAUGCUCUGAAAAUGACUCCAAUCAUUA [hsa-mir-3202-2]”, the “pull-down binding Z-score” value in series [1] is -0.457; in the series on TO-N3 (biotin conjugate), -0.741; in series [2] it was -0.069; in series [3], -1.64; in series [4] it was -0.685.
Taken in the same sequence, the figures for “GGCUGUGGCCUAGGGCAAGCCACAAAGCC [hsa-mir-4642]” were 0.939, 0.183, 0.245, 0.507 and 0.0577.
Taken in the same sequence, the figures for “AGGCCUGAGUCUCUCUGCUGCAGAUGGGCUC [hsa-mir-422a]” were 1.29, 0.668, -0.0262, -0.38 and -0.112.
As for “CUCGUCUCUACAAAAAAUUGAGACAGG [hsa-mir-4512]”, the “pull-down binding Z-score” value in series [1] is -0.632; in the series with TO-N3 (biotin conjugate) it was -0.152; in series [2], -0.15; in series [3] it was -0.338; in series [4] it was 0.00896.
CAAACCGGACCUGAGCGUUUUG [hsa-mir-375]: the “pull-down binding Z-score” value is 0.74 in series [1]; 1.08 in the series on TO-N3 (biotin conjugate); 0.514 in series [2]; -0.122 in series [3]; 1.14 in series [4].
